Where no end group is shown, it is not given here.
T1: TONSL Ankyrin Repeat Domain (ARD, residues 512-692), purified recombinant (human, UniProt Q96HA7 512-692)
T1 construct: Expressed as a GST fusion in E. coli; Used in ITC, peptide pull-down and native MS; also called TONSL ARD; TONSL-ARD
T1 sequence: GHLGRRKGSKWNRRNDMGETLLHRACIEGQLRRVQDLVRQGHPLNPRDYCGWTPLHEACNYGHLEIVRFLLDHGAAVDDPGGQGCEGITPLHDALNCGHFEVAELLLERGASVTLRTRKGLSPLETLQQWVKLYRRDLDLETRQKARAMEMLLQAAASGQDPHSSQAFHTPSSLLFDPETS

T2: TONSL acidic stretch and ARD (aa. 450-692) (human, UniProt Q96HA7 450-692)
T2 sequence: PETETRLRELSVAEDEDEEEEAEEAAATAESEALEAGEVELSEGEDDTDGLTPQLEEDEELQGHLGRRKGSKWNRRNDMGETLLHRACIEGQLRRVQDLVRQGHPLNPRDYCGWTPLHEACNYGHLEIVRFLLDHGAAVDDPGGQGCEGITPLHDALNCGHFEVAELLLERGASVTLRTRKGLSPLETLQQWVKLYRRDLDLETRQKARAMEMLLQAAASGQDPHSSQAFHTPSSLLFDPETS


Columns and labels:
[1] = target: T3, MCM2 Histone-binding Domain (HBD, residues 61-130) (human, UniProt P49736 61-130); assay: GST pull-down of recombinant H3-H4 and MCM2 HBD with GST-TONSL ARD, stained gel (MCM2 HBD offered together with H3-H4)
T3 construct: In the crystal it is linked to TONSL ARD by the G4 linker; also called MCM2 HBD
T3 sequence (P49736 61-130): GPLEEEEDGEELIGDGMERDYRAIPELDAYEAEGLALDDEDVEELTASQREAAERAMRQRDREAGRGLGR

[2] = target: T1, TONSL Ankyrin Repeat Domain (ARD, …); assay: native MS, titration Kd (constant peptide to protein ratio, decreasing protein concentration); Titration Kd; no apparent Kd given for Example 11
Procedure: (§1) The mass spectrometry (MS) analysis were carried out on an electrospray time-of-flight mass spectrometer (LCT, Waters, Manchester, UK) equipped with an automated chip-based nanoESI device (Triversa Nanomate, Advion Biosciences, Ithaca, N.Y.). External calibration was done in the positive ion mode over the mass range m/z 200-6000 using the multiply charged ions produced by 0.4 μM horse heart myoglobin solution diluted in water/acetonitrile 50/50 mixture acidified with 0.5% (v/v) formic acid. […] […] Incubations were performed at room temperature for 15 min. Mass spectra were recorded using reduced cone voltage (Vc=50 V) and elevated interface pressure (Pi=5 mbar) which correspond to fine-tuned instrumental settings providing sufficient ion desolvation while preserving the integrity of weak non-covalent complexes in the gas phase. Micromass MassLynx 4.1 was used for data acquisition and processing.
(§2) This protein proportion is used to calculate the bound protein, the free protein and the free peptide concentrations. The Kd is calculated by using the following equation for each protein/peptide concentration. The final Kd for each peptide is the average of the Kd at different protein/peptide ratio.

[3] = target: T1, TONSL Ankyrin Repeat Domain (ARD, …); assay: native MS, apparent Kd
[4] = target: T1, TONSL Ankyrin Repeat Domain (ARD, …); assay: native MS, abundance of the 1:1 protein-peptide complex, 10 µM TONSL ARD
Procedure: The mass spectrometry (MS) analysis were carried out on an electrospray time-of-flight mass spectrometer (LCT, Waters, Manchester, UK) equipped with an automated chip-based nanoESI device (Triversa Nanomate, Advion Biosciences, Ithaca, N.Y.). External calibration was done in the positive ion mode over the mass range m/z 200-6000 using the multiply charged ions produced by 0.4 μM horse heart myoglobin solution diluted in water/acetonitrile 50/50 mixture acidified with 0.5% (v/v) formic acid. […] The protein concentration was set to 10 μM and different peptide concentrations ranging from 1 to 5 molar equivalents were added. Incubations were performed at room temperature for 15 min. Mass spectra were recorded using reduced cone voltage (Vc=50 V) and elevated interface pressure (Pi=5 mbar) which correspond to fine-tuned instrumental settings providing sufficient ion desolvation while preserving the integrity of weak non-covalent complexes in the gas phase. Micromass MassLynx 4.1 was used for data acquisition and processing.
The proportion of 1:1 stoichiometry complex is calculated according to the following equation: […]

[5] = target: T1, TONSL Ankyrin Repeat Domain (ARD, …); assay: native MS, titration Kd (constant peptide to protein ratio, decreasing protein concentration)
Procedure: as §1, §2

[6] = target: T2, TONSL acidic stretch and ARD (aa. …); assay: ITC, peptide injected into TONSL (450-692); the value stands without a heading in the legend box, in the column where the other peptide has NB
[7] = target: T1, TONSL Ankyrin Repeat Domain (ARD, …); assay: ITC, peptide injected into TONSL ARD

Row | binding result [1] | Kd [3] | % P1L1 [4] | Binder | also measured
1 | no binding |  |  | GST-TONSL ARD D559A (other, not shown: GST tag of the pGEX-6P-1 vector) GHLGRRKGSKWNRRNDMGETLLHRACIEGQLRRVQDLVRQGHPLNPRAYCGWTPLHEACNYGHLEIVRFLLDHGAAVDDPGGQGCEGITPLHDALNCGHFEVAELLLERGASVTLRTRKGLSPLETLQQWVKLYRRDLDLETRQKARAMEMLLQAAASGQDPHSSQAFHTPSSLLFDPETS | 
2 | no binding |  |  | GST-TONSL ARD N571A (other, not shown: GST tag of the pGEX-6P-1 vector) GHLGRRKGSKWNRRNDMGETLLHRACIEGQLRRVQDLVRQGHPLNPRDYCGWTPLHEACAYGHLEIVRFLLDHGAAVDDPGGQGCEGITPLHDALNCGHFEVAELLLERGASVTLRTRKGLSPLETLQQWVKLYRRDLDLETRQKARAMEMLLQAAASGQDPHSSQAFHTPSSLLFDPETS | 
3 | no binding |  |  | GST-TONSL ARD E530A (other, not shown: GST tag of the pGEX-6P-1 vector) GHLGRRKGSKWNRRNDMGATLLHRACIEGQLRRVQDLVRQGHPLNPRDYCGWTPLHEACNYGHLEIVRFLLDHGAAVDDPGGQGCEGITPLHDALNCGHFEVAELLLERGASVTLRTRKGLSPLETLQQWVKLYRRDLDLETRQKARAMEMLLQAAASGQDPHSSQAFHTPSSLLFDPETS | 
4 | no binding |  |  | GST-TONSL ARD W563A (other, not shown: GST tag of the pGEX-6P-1 vector) GHLGRRKGSKWNRRNDMGETLLHRACIEGQLRRVQDLVRQGHPLNPRDYCGATPLHEACNYGHLEIVRFLLDHGAAVDDPGGQGCEGITPLHDALNCGHFEVAELLLERGASVTLRTRKGLSPLETLQQWVKLYRRDLDLETRQKARAMEMLLQAAASGQDPHSSQAFHTPSSLLFDPETS | 
5 | no binding |  |  | GST-TONSL ARD E568A (other, not shown: GST tag of the pGEX-6P-1 vector) GHLGRRKGSKWNRRNDMGETLLHRACIEGQLRRVQDLVRQGHPLNPRDYCGWTPLHAACNYGHLEIVRFLLDHGAAVDDPGGQGCEGITPLHDALNCGHFEVAELLLERGASVTLRTRKGLSPLETLQQWVKLYRRDLDLETRQKARAMEMLLQAAASGQDPHSSQAFHTPSSLLFDPETS | 
6 | no binding |  |  | GST-TONSL ARD D604A (other, not shown: GST tag of the pGEX-6P-1 vector) GHLGRRKGSKWNRRNDMGETLLHRACIEGQLRRVQDLVRQGHPLNPRDYCGWTPLHEACNYGHLEIVRFLLDHGAAVDDPGGQGCEGITPLHAALNCGHFEVAELLLERGASVTLRTRKGLSPLETLQQWVKLYRRDLDLETRQKARAMEMLLQAAASGQDPHSSQAFHTPSSLLFDPETS | 
7 |  |  |  | LGKGGAKRHRKVLRDNI (C-terminal amide (-NH2), Bought from JPT Peptide Technologies) | Kd [2]: 77 nM
8 |  | 100 nM | 89.9% | KGGAKRHRKVLR-NH2 [Lys-Gly-Gly-Ala-Lys-Arg-His-Arg-Lys-Val-Leu-Arg-NH2, Example 13] | Kd [5]: 310 nM
9 |  | 1000 nM | 73.3% | KGGAKRHAKVLR-NH2 (H4 12-23 with Arg19 replaced by Ala) [Lys-Gly-Gly-Ala-Lys-Arg-His-Ala-Lys-Val-Leu-Arg-NH2, Example 14] | Kd [5]: 960 nM
10 |  | 400 nM | 81.4% | KGGAARHRKVLR-NH2 (H4 12-23 with Lys16 replaced by Ala) [Lys-Gly-Gly-Ala-Ala-Arg-His-Arg-Lys-Val-Leu-Arg-NH2, Example 15] | 
11 |  |  |  | GLGKGGAKRHRKVLRDN (Synthesised at Tufts University Core Facility; also called H4 (9-25); H4 tail (9-25)) [histone H4 (residues 9-25) peptide, unmodified] | Kd [6]: 1500 nM
12 |  |  |  | GLGKGGAKRWRKVLRDN (His18 mutated to Trp18) [histone H4 (residues 9-25) peptide H18W] | binding result [7]: no binding (tested: molar ratio about 1.8)
13 |  | 2200 nM | 62.6% | AKRHRKVLR-NH2 [Ala-Lys-Arg-His-Arg-Lys-Val-Leu-Arg-NH2, Example 12] | Kd [5]: 1950 nM
